T1: GST-tagged A. thaliana Rpn10 (AtRpn10) vWA domain (Arabidopsis thaliana, UniProt P55034 2-193)
T1 construct: also called GST-AtRpn10; GST-Rpn10vWA
T1 sequence: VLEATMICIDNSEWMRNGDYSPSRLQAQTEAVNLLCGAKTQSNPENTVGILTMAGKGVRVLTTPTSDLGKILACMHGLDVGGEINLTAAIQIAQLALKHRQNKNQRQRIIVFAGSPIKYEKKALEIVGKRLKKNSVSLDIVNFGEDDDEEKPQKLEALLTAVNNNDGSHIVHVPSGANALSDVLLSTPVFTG

B1: aster yellows witches'-broom phytoplasma SAP05 (AYWB_SAP05), mature, 33-135 (natural protein)
chain: APNEEFVGDMRIVNVNLSNIDILKKHETFKKYFDFTLTGPRYNGNIAEFAMIWKIKNPPLNLLGVFFDDGTRDDEDDKYILEELKQIGNGAKNMYIFWQYEQK
notes: source: E. coli BL21(DE3), purified (Ni-NTA, Superdex 75)
B2: onion yellows phytoplasma (OY-M strain) SAP05 (OY_SAP05) (natural protein)
chain: APHEERVGDMRIVNITFSDINSIKNFQPFSQYFDFTLTGPRYNGNIAQFAMIWKIKNPPHNLLGVFFDNNTRDDEDDKYTLEELKQMGNGAKNMYIFWQYEQK
notes: as for B1

Target: T1, GST-tagged A. thaliana Rpn10 (AtRpn10) …
Experiment: SPR
Conditions: both partners purified

| Binder | Kd [nM] |
| --- | --- |
| B1 | 400 ± 39 |
| B2 | 398 ± 39 |

Reference: paper doi:10.1101/2023.08.24.554544 (bioRxiv, 2023)
